Results reported in patent US12291727B2, “Method for producing stem cell-derived lacrimal gland tissue” (Osaka University, priority 2018, dated 2025).

Test system: CD200−, SSEA4+, and CD104+ ocular surface stem cells
Assay: Three-dimensional culture for induction of lacrimal gland organoids from iPS cell-derived ocular surface stem cells
Format: cell-based, Human
Conditions: for promoting lacrimal gland differentiation: 3D culture in Matrigel, 20 ng/mL KGF, 100 ng/mL FGF10, 100 ng/mL BMP7 or 10 μM Y-27632, each plus 10 ng/mL EGF, FIG. 5A
Protocol: The obtained ocular surface stem cells were seeded on PrimeSurface (registered trademark) 96U plates (Sumitomo Bakelite Co., Ltd.) at 50,000 cells/spheroid in DMEM/F-12 with B27 supplement containing 10 μM Y-27632 and 20 ng/mL KGF and cultured for 1 day to form spheroids (diameter: about 560 μm). The spheroids were embedded in Matrigel GFR (Corning) and cultured in DMEM/F-12 with B27 supplement containing 10 μM Y-27632, 10 ng/mL EGF, and 100 ng/mL TGF-β3 for 2 weeks.
Three-dimensional culture was performed as described in Example 2 in the presence of 10 ng/mL EGF, 10 ng/mL EGF plus 10 μM Y-27632, or 10 ng/mL EGF plus another growth factor reportedly involved in lacrimal gland differentiation, namely, 20 ng/mL KGF, 100 ng/mL FGF10, or 100 ng/mL BMP7.
Similarly, three-dimensional culture was performed in DMEM/F-12 with B27 supplement, 10 ng/mL EGF, and 10 μM Y-27632 containing 100 ng/mL TGF-β1, β2, or β3.
Three-dimensional culture was performed as described in Example 2 in a medium with 10 ng/mL EGF and 10 μM Y-27632 containing 4, 20, or 100 ng/mL TGF-β3.
RNA was collected from each sample using QIAzol Lysis Reagent and subjected to gene expression analysis as described in Example 3.

Molecule | promoting lacrimal gland differentiation | also measured
C[C@@H](N)[C@H]1CC[C@H](C(=O)Nc2ccncc2)CC1 [Y-27632, N-(4-pyridinyl)-4β-[(R)-1-aminoethyl]cyclohexane-1α-carboamide, reference compound] | remarkably promoted lacrimal gland differentiation | 
TGF-β |  | maturation of the lacrimal gland structure (100 ng/mL TGF-β1, β2 or β3 in medium with 10 ng/mL EGF and 10 μM Y-27632, FIG. 5B): helped further maturation of the lacrimal gland structure
KGF: keratinocyte growth factor, growth factor reportedly involved in lacrimal gland differentiation (protein, UniProt P21781 32-194, looked up) Fibroblast growth factor 7: CNDMTPEQMATNVNCSSPERHTRSYDYMEGGDIRVRRLFCRTQWYLRIDKRGKVKGTQEMKNNYNIMEIRTVAVGIVAIKGVESEFYLAMNKEGKLYAKKECNEDCNFKELILENHYNTYASAKWTHNGGEMFVALNQKGIPVRGKKTKKEQKTAHFLPMAIT | less effective | 
FGF10: growth factor reportedly involved in lacrimal gland differentiation (protein, UniProt O15520 38-208, looked up) Fibroblast growth factor 10: QALGQDMVSPEATNSSSSSFSSPSSAGRHVRSYNHLQGDVRWRKLFSFTKYFLKIEKNGKVSGTKKENCPYSILEITSVEIGVVAVKAINSNYYLAMNKKGKLYGSKEFNNDCKLKERIEENGYNTYASFNWQHNGRQMYVALNGKGAPRRGQKTRRKNTSAHFLPMVVHS | less effective | 
TGF-β3: TGF-β subtype added to the medium to promote cell maturation (protein, UniProt P10600 301-412, looked up, Transforming growth factor beta-3, TGF-β subtype added to the medium to promote cell maturation) Transforming growth factor …: ALDTNYCFRNLEENCCVRPLYIDFRQDLGWKWVHEPKGYYANFCSGPCPYLRSADTTHSTVLGLYNTLNPEASASPCCVPQDLEPLTILYYVGRTPKVEQLSNMVVKSCKCS |  | maturation (morphology and gene expression) (4 ng/mL TGF-β3 in medium with 10 ng/mL EGF and 10 μM Y-27632, FIGS. 6A, 6B): maturation was promoted to some extent; extent of maturation, concentration dependence (4, 20 or 100 ng/mL TGF-β3 in medium with 10 ng/mL EGF and 10 μM Y-27632): increased in a TGF-β3 concentration dependent manner
BMP7: growth factor reportedly involved in lacrimal gland differentiation (protein, UniProt P18075 293-431, looked up) Bone morphogenetic protein 7: STGSKQRSQNRSKTPKNQEALRMANVAENSSSDQRQACKKHELYVSFRDLGWQDWIIAPEGYAAYYCEGECAFPLNSYMNATNHAIVQTLVHFINPETVPKPCCAPTQLNAISVLYFDDSSNVILKKYRNMVVRACGCH | less effective | 
